Substitutions are numbered along the chain they refer to. Names may count otherwise.

The labels stand for the following.
T1: TP-51 peptide (aa 352-414 of SEQ ID NO:1) (human)
T1 construct: Synthetic peptide (Pepscan)
T1 peptide: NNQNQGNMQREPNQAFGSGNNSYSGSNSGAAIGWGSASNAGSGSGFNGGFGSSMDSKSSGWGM

B1: cACI-7069-633B12-Ab1 (human IgG4 S228P chimeric) (antibody, V domains shown)
VH: EVQLQQSGPELVKPGASVKISCKTSGFTFTEYSMHWVKQSHGKSLEWIGGINPNNGGTSYNQKFKGKATLTVDKSSSTAYMELRSLTSEDSAVYYCARESWGQGTTLTVSS
VL: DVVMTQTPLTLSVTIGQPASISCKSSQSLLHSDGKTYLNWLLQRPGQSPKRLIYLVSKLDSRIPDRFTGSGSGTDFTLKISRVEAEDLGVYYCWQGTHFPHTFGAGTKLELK
notes: Murine variable domains on a human IgG4 (S228P) constant domain and human kappa; also called chimeric antibody
B2: hACI-7069-633B12-Ab1_H19L14 (IgG4) (antibody, V domains shown)
VH: QVQLVQSGAEVKKPGASVKVSCKTSGFTFTEYSMHWVRQAPGQRLEWIGGINPGNAGTSYNQKFKGRVTITVDTSASTAYMELSSLRSEDTAVYYCARESWGQGTTVTVSS
VL: DVVMTQSPLSLPVTLGQPASISCKSSQSLLHSDAKTYLNWLQQRPGQSPRRLIYLVSKLDSGVPDRFSGSGSGTDFTLKISRVEAEDLGVYYCFQGTHFPHTFGQGTKLEIK
B3: hACI-7069-633B12-Ab1_H19L18 (IgG4) (antibody, V domains shown)
VH: B2 VH
VL: B2 VL with G62R
B4: hACI-7069-633B12-Ab1_H16L14 (IgG4) (antibody, V domains shown)
VH: B2 VH with Q1E, T24A, I48M
VL: B2 VL
B5: hACI-7069-633B12-Ab1_H17L14 (IgG4) (antibody, V domains shown)
VH: B2 VH with T24A, R38K, I48M
VL: B2 VL
B6: hACI-7069-633B12-Ab1_H20L18 (IgG4) (antibody, V domains shown)
VH: B2 VH with Q1E
VL: B2 VL with G62R
B7: hACI-7069-633B12-Ab1_H15L14 (IgG4) (antibody, V domains shown)
VH: B2 VH with T24A, I48M
VL: B2 VL
B8: hACI-7069-633B12-Ab1_H20L19 (IgG4) (antibody, V domains shown)
VH: B2 VH with Q1E
VL: B2 VL with R50K, G62R
B9: hACI-7069-633B12-Ab1_H19L17 (IgG4) (antibody, V domains shown)
VH: B2 VH
VL: B2 VL with Q42L
B10: hACI-7069-633B12-Ab1_H20L14 (IgG4) (antibody, V domains shown)
VH: B2 VH with Q1E
VL: B2 VL
B11: hACI-7069-633B12-Ab1_H19L19 (IgG4) (antibody, V domains shown)
VH: B2 VH
VL: B2 VL with R50K, G62R
B12: 642D12B4 Fab (Fab, V domains shown)
VH: EVQLQQSGAELVKPGASVRLSCTASGFNIKDPYMHWVRQRPKQGLEWIGRIDPADGNTKYDPKFQGKATLTADTSSNVAYLHLSSLTSEDTAVYYCARFYGSSHWYFDVWGAGTTVTVSS
VL: DIKMTQSPSSMYASLGERVTITCKASQDIKRYLSWYQQKPWKSPKILIYYATSLADGVPSRFSGTGSGQDYSLTISSLESDDVATYYCLQQGESPYTFGGGTKLEIK
notes: Fab fragment; also called Fab fragment of ACI-7069-642D12-Ab1
B13: ACI-7069-642A10-Ab1 (antibody, mouse IgG1, V domains shown)
VH: QVQLQQPGAELVKPGASVKLSCKASGYTFTKYWMHWVKQRPGQGLEWIGEINPSNGRTNYNEKFKSKATLTVDKSSSTAYMQLSSLTSEDSAVYYCARYMDYWGQGTSVTVSS
VL: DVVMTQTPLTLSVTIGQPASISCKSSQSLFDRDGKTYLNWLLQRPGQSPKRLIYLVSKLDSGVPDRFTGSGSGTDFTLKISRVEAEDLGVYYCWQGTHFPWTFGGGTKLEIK
notes: Mouse IgG1, kappa, from hybridoma; also called 642A10B11

For the first experiment, the target named is T2, recombinant human full-length TDP-43 (TAR DNA-binding protein 43), soluble (human, UniProt Q13148 1-414).
T2 construct: Used on Luminex beads, coated on ELISA plates, and immobilized or injected in SPR; also called FL TDP-43; TDP-43 protein
T2 sequence (Q13148 whole entry): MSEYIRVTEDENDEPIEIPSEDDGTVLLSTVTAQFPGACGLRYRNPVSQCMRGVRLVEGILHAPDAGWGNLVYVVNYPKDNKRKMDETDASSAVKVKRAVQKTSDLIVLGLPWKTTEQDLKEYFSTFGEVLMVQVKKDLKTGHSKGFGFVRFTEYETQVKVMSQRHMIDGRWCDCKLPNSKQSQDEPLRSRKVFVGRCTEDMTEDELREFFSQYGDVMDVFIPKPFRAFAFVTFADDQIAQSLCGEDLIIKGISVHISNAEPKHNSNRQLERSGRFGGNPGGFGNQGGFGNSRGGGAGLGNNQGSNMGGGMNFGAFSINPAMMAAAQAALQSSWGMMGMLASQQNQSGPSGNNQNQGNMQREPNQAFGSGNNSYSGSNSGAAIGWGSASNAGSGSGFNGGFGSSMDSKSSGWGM
The experiment in a line: SPR 8K, immobilized soluble TDP-43. Here is the method: The instrument was primed with running buffer PBS-P+ and flow cells (Fc) 1 and 2 of channels 1-8 were activated with a fresh solution of EDC/NHS (Amine Coupling Kit, 1:1 ratio of both reagents, GE Healthcare Life Sciences, BR-1006-33) at 10 µL/min for 420 sec. Soluble TDP-43 (Selvita) was diluted in sodium acetate pH 4.5 to a final concentration of 5 µg/mL and injected for 900 sec with a flow rate of 5 µL/min on Fc 2. All flow cells were quenched with 1 M ethanol amine (GE Healthcare Life Sciences, BR-1006-33), at 10 µL/min for 420 sec. Immobilization levels after ethanolamine quenching were 680 RU on all eight channels. Prior to analysis, two Startup cycles were run. Increasing mAbs concentrations were injected in single-cycle kinetics ranging from 1.2 to 100 nM, prepared from a 3-fold serial dilution in running buffer, with a contact time of 300 sec and a dissociation time of 900 sec at a flow rate of 30 µL/min. Each cycle was followed by one regeneration using 10 mM Glycine-HCl pH 1.7 with a contact time of 30 sec at 30 µL/min, followed by a stabilization period of 300 sec. Results obtained from single-cycle kinetics were double-referenced using the blank Fc 1 and buffer cycles and evaluated using Biacore 8 K evaluation software using the 1:1 kinetic fit model with RI and global Rmax. The following kinetic parameters were obtained: association rate constant (ka), dissociation rate constant (kd), affinity constant (KD) and saturation response (Rmax).
Turning to B1, the Kd came to 0.238 nM, the koff came out at 9.9e-06 s⁻¹ and the kon was 42000 M⁻¹ s⁻¹.

Turning to B2, the Kd worked out at 1.01 nM, the koff was determined as 3e-05 s⁻¹ and the kon was 30000 M⁻¹ s⁻¹.

Consider B3, for which the Kd turned out to be 0.431 nM, the koff amounted to 1.4e-05 s⁻¹ and the kon came out at 33000 M⁻¹ s⁻¹.

As for B4, the Kd is 0.605 nM, the off-rate constant (koff) is 3.3e-05 s⁻¹ and the kon turned out to be 55000 M⁻¹ s⁻¹.

B5: the equilibrium dissociation constant (Kd) came out at 1.34 nM, the koff came out at 4.2e-05 s⁻¹ and the kon turned out to be 31000 M⁻¹ s⁻¹.

For B6, the Kd came to 0.45 nM, the koff worked out at 1.4e-05 s⁻¹ and the kon came to 32000 M⁻¹ s⁻¹.

As to B7, the Kd amounted to 1.2 nM, the koff was 3.5e-05 s⁻¹ and the kon was 29000 M⁻¹ s⁻¹.

B8: the Kd is 0.684 nM, the koff amounted to 1.9e-05 s⁻¹ and the on-rate constant (kon) was 27000 M⁻¹ s⁻¹.

Turning to B9, the Kd was determined as 1.38 nM, the koff is 3.5e-05 s⁻¹ and the kon is 26000 M⁻¹ s⁻¹.

As for B10, the Kd was 1.74 nM, the koff came out at 4.4e-05 s⁻¹ and the kon came to 25000 M⁻¹ s⁻¹.

Turning to B11, the Kd turned out to be 0.508 nM, the koff worked out at 1.5e-05 s⁻¹ and the kon was 29000 M⁻¹ s⁻¹.

A further experiment concerns the target T2, recombinant human full-length TDP-43 …. Nature of the experiment: SPR, immobilized soluble TDP-43. On the procedure:
(§1) Binding avidity to soluble or aggregated FL TDP-43 was evaluated by determing the dissociation constants (KD) using surface plasmon resonance (SPR; Biacore T200, GE Healthcare Life Sciences). Recombinant human soluble or aggregated FL TDP-43 were immobilized on a CM5 Series S sensor chip (GE Healthcare Life Sciences) by amine coupling. Soluble TDP-43 was immobilized at a concentration of 5 µg/ml in 10 mM sodium acetate (pH 4.5) with a flow rate of 5 µl/min for 420 seconds resulting in an immobilization level of 150 RU. Aggregated TDP-43 was immobilized at a concentration of 50 µg/ml in 10 mM sodium acetate (pH 4.5) with a flow rate of 5 µl/min for 840 seconds resulting in an immobilization level of 110 RU. Biotinylated TP-73 peptide (aa 181-190 of SEQ ID NO:1) was immobilized on a Series S Sensor Chip SA (GE Healthcare Life Sciences) at a concentration of 5 µg/ml in PBS-P⁺ with a flow rate of 5 µl/min for 30 seconds resulting in an immobilization level of 400 RU. […] The antibodies were injected at a flow rate of 50 µl/min for 90 seconds contact time and 700 seconds dissociation phase followed by three regenerations with 10 mM glycine-HCl pH 1.7. For the optimized SPR protocol the antibodies were diluted 3-fold starting from 300 nM and dilute down to 1.2 nM and injected for 300 seconds at 30 µl/min followed by 600 seconds dissociation. The surface was regenerated by one injection with 10 mM glycine-HCl pH 1.7. Results obtained from binding kinetics were double-referenced using a blank flow cell and a buffer cycle and were evaluated with a global 1:1 fitting model with RI. Avidities for 11 antibodies and two Fab fragments are depicted in Table 8. […] In addition, some antibodies show preferential binding to aggregated TDP-43 as compared with soluble TDP-43.
On the technique in general: Surface plasmon resonance follows binding to a sensor surface in real time, without labels.
In the case of B12, the Kd was 21.8 nM, the koff was 0.00267 s⁻¹ and the kon is 128000 M⁻¹ s⁻¹.

Another experiment has as its target T1, TP-51 peptide (aa 352-414 of SEQ ID …). The experiment in a line: SPR 8K, mAb captured, TP-51 injected. On the procedure:
The instrument was primed with running buffer PBS-P+. Fc 1-2 of channels 1-8 (8 K) were activated with a fresh solution of EDC/NHS(Amine Coupling Kit, 1:1 ratio of both reagents, GE Healthcare Life Sciences, BR-1006-33) at 10 µL/min for 420 sec and goat anti-human antibody (GE Healthcare Life Sciences, 29234600) was immobilized at 25 µg/mL in 10 mM sodium acetate pH 5 for 420 sec. Next, all Fc were quenched with 1 M ethanol amine(GE Healthcare Life Sciences, BR-1006-33), for 420 sec. Any non-covalently bound antibodies were removed by two regenerations with 10 mM Glycine-HCl pH 1.7 for 30 sec. Immobilization levels were evaluated following ethanolamine quenching (10000 RU for all channels).
Each cycle started with non-covalent capture of humanized variants which were diluted in running buffer to a final concentration of 2 µg/mL and injected for 60 sec with a flow rate of 10 µL/min. TDP-43 mAbs were captured on channels 1-8, leaving Fc 1 as a blank Fc. Capture levels were evaluated following a 120 sec stabilization period after each mAb injection and ranged from 300-500 RU.
Injections of TP-51 peptide (Pepscan) were performed in single-cycle kinetics with increasing concentrations ranging from 1.2-100 nM prepared from serial 3-fold dilutions. Injections were performed with contact times of 300 sec/injection at a flow rate of 25 µL/min. A dissociation phase of 3600 sec followed the final injection. Sensor surface was regenerated by one injection of 10 mM Glycine-HCl pH 1.7 at a flow rate of 10 µL/min for 120 sec, followed by a stabilization period of 300 sec. Results obtained from single-cycle kinetics were double-referenced using the blank Fc 1 and buffer cycles and evaluated by Biacore 8 K evaluation software with 1:1 kinetic fit model with RI and global Rmax. The following kinetic parameters were obtained: association rate constant (ka), dissociation rate constant (kd), affinity constant (KD) and saturation response (Rmax).
In turn, B1 showed a Kd of 1.7 nM, a koff of 0.00021 s⁻¹ and a kon of 130000 M⁻¹ s⁻¹.

As for B2, the Kd stood at 9.4 nM, the koff was found to be 0.0011 s⁻¹ and the kon was found to be 120000 M⁻¹ s⁻¹.

B3: the Kd amounted to 1.9 nM, the off-rate constant (koff) came to 0.00023 s⁻¹ and the on-rate constant (kon) was found to be 120000 M⁻¹ s⁻¹.

With B4, the Kd stood at 9.9 nM, the koff was 0.0013 s⁻¹ and the kon was found to be 140000 M⁻¹ s⁻¹.

In turn, B5 had a Kd of 9 nM, a koff of 0.0012 s⁻¹ and a kon of 130000 M⁻¹ s⁻¹.

Take B6: the affinity, expressed as Kd, was 2.1 nM; the koff came out at 0.00021 s⁻¹; the kon worked out at 97000 M⁻¹ s⁻¹.

Molecule B7 registered a Kd of 8.3 nM, a koff of 0.00094 s⁻¹ and a kon of 110000 M⁻¹ s⁻¹.

For B8, the Kd is 2.9 nM, the koff came out at 0.00026 s⁻¹ and the on-rate constant (kon) is 90000 M⁻¹ s⁻¹.

Molecule B9 gave a dissociation constant Kd of 13.1 nM, a koff of 0.00093 s⁻¹ and a kon of 70000 M⁻¹ s⁻¹.

The molecule B10 came in with a Kd of 11.1 nM, a koff of 0.0014 s⁻¹ and a kon of 130000 M⁻¹ s⁻¹.

B11 gave a Kd of 2.3 nM, an off-rate (koff) of 0.00026 s⁻¹ and a kon of 110000 M⁻¹ s⁻¹.

The target in another experiment is T3, recombinant human aggregated full-length TDP-43 (human, UniProt Q13148 1-414).
T3 construct: also called aggregated TDP-43; aggregated FL TDP-43
T3 sequence (Q13148 whole entry): as above
The experiment in a line: SPR, immobilized aggregated TDP-43. Here is the method:
as §1
Turning to B12, the Kd came to 21.8 nM, the koff stood at 0.00176 s⁻¹ and the on-rate (kon) was found to be 94000 M⁻¹ s⁻¹.

For the molecule B13, the equilibrium dissociation constant (Kd) was determined as 4.64 nM, the koff came to 0.00585 s⁻¹ and the kon came out at 1.26e+06 M⁻¹ s⁻¹.

As a reminder, the Kd is the concentration at which binding is half-saturated. Usually koff stands for the first-order rate constant of dissociation. As a reminder, the kon is the rate constant with which the complex forms.

Source of the values: US20230322908A1 (AC IMMUNE, published 2023).
